We go through one protein from patent US20180291362A1 (SEOUL NATIONAL UNIVERSITY R AND DB FOUNDATION, published 2018).

This data set concerns the molecule itself. Briefly: non-reducing vs reducing SDS PAGE, subunit self-association (disulfide cross-link). The protocol: In order to observe the disulfide bonding of lysine decarboxylase mutant strain, the protein sizes when reducing power was applied and not applied to wild type lysine decarboxylase LdcI (SEQ ID NO: 15) and the mutant strain wherein phenylalanine at position 14 is substituted with cysteine, and lysine at position 44 is substituted with cysteine (F14C/K44C, SEQ ID NO: 6) were measured with SDS PAGE. Such a measurement can confirm whether a shared bond is formed between sulfur elements in a form —S—S— wherein two SH groups added to the mutant strain are producing in oxidation. In a reducing SDS PAGE, reducing power is applied to both of the wild type and the mutant strain to break all disulfides where bonding is possible, and then the sizes are observed, and in non-reducing SDS PAGE, it was observed whether disulfide bond is formed.

B1: lysine decarboxylase LdcI mutant strain wherein phenylalanine at position 14 is substituted with cysteine, and lysine at position 44 is substituted with … (enzyme)
chain: MNVIAILNHMGVYCKEEPIRELHRALERLNFQIVYPNDRDDLLCLIENNARLCGVIFDWDKYNLELCEEISKMNENLPLYAFANTYSTLDVSLNDLRLQISFFEYALGAAEDIANKIKQTTDEYINTILPPLTKALFKYVREGKYTFCTPGHMGGTAFQKSPVGSLFYDFFGPNTMKSDISISVSELGSLLDHSGPHKEAEQYIARVFNADRSYMVTNGTSTANKIVGMYSAPAGSTILIDRNCHKSLTHLMMMSDVTPIYFRPTRNAYGILGGIPQSEFQHATIAKRVKETPNATWPVHAVITNSTYDGLLYNTDFIKKTLDVKSIHFDSAWVPYTNFSPIYEGKCGMSGGRVEGKVIYETQSTHKLLAAFSQASMIHVKGDVNEETFNEAYMMHTTTSPHYGIVASTETAAAMMKGNAGKRLINGSIERAIKFRKEIKRLRTESDGWFFDVWQPDHIDTTECWPLRSDSTWHGFKNIDNEHMYLDPIKVTLLTPGMEKDGTMSDFGIPASIVAKYLDEHGIVVEKTGPYNLLFLFSIGIDKTKALSLLRALTDFKRAFDLNLRVKNMLPSLYREDPEFYENMRIQELAQNIHKLIVHHNLPDLMYRAFEVLPTMVMTPYAAFQKELHGMTEEVYLDEMVGRINANMILPYPPGVPLVMPGEMITEESRPVLEFLQMLCEIGAHYPGFETDIHGAYRQADGRYTVKVLKEESKK
modifications: disulfide bond between the introduced cysteines (positions 14 and 44) of neighbouring subunits
notes: Purified enzyme; also called F14C/K44C; F14C/K44C mutant strain
As to B1, the binding result was “binds”.
